Laboratory results reported in the supplement of paper PMC10201428.
± gives the standard deviation of the averaged measurements.

Columns and labels:
[1] = system: VchCAST RNA-guided transposition machinery (E. coli BL21(DE3) host, lacZ target); assay: relative integration efficiency (T-RL orientation) vs wild-type transposon end (log2 (normalized fold change)); transposon end mutated: right end (5 bp flank + 75 bp right end); higher = more efficient transposition
Method in brief: (§1)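 Each barcoded pool, 1549 left-end or 1849 right-end transposon variants in a pUC57 mini-transposon donor, went into E. coli BL21(DE3) with a T7-driven effector plasmid (CRISPR array, tniQ-cas8-cas7-cas6, tnsA-tnsB-tnsC). Plates contained 0.1 mM IPTG and were held at 37°C for 18 h. Input plasmids and genomic integration junctions were PCR-amplified and read by Illumina sequencing, with two biological output replicates and four reference barcodes. Relative integration efficiency is the fold change of output over input barcode abundance, normalised to the reference barcodes and log-transformed.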

[2] = system: VchCAST RNA-guided transposition machinery (E. coli BL21(DE3) host, lacZ target); assay: relative integration efficiency (T-LR orientation) vs wild-type transposon end (log2 (normalized fold change)); transposon end mutated: right end (5 bp flank + 75 bp right end); higher = more efficient transposition
Method in brief: as §1

Sequence | relative integration efficiency (log2) [1] | relative integration efficiency (log2) [2]
ACATTTGTTGATACAACCATAAAATGATAATTACACCCATAAATTGATAATTAGACACAAACGCCCGGTCGCGGTAAGAGGATCATAGTCAGACCAACATTGCTACGACCCGTATTCGCACCGACAC | -0.538 ± 0.21 | 2.66 ± 0.16
ACATTTGTTGATACAACCATAAAATGATAATTACACCCATAAATTGATAATTATACACAAACGCCCGGTCGCGGTAAGAGGATCATAGTCAGACCAACATTGCTACGACCCGTATTCGCACCGACAC | -1.49 ± 0.49 | 2.63 ± 0.19
ACATTTGTTGATACAACCATAAAATGATAATTACACCCATAAATTGATAATTATACACCCCATAAATTGATATTGCCTCTGATCATAGTCAGACCAACATTGCTACGACCCGTATTCGCACCGACAC | -1.07 ± 0.23 | 1.28 ± 0.067
ACATTTGTTGATACAACCATAAAATGATAATTACACCCATAAATTGATAATTATACCACCCATAAATTGATATTGCCTCTGATCATAGTCAGACCAACATTGCTACGACCCGTATTCGCACCGACAC | -0.694 ± 0.23 | 0.802 ± 0.067
ACATTTGTTGATACAACCATAAAATGATAATTACACCCATAAATTGATAATTATCAAAACACCCATAAATTGATATTGCCTCTGATCATAGTCAGACCAACATTGCTACGACCCGTATTCGCACCGA | -0.514 ± 0.17 | 2.29 ± 0.22
ACATTTGTTGATACAACCATAAAATGATAATTACACCCATAAATTGATAATTATCAAACACCCATAAATTGATATTGCCTCTGATCATAGTCAGACCAACATTGCTACGACCCGTATTCGCACCGAC | -0.252 ± 0.046 | 1.9 ± 0.28
ACATTTGTTGATACAACCATAAAATGATAATTACACCCATAAATTGATAATTATCAACAAACGCCCGGTCGCGGTAAGAGGATCATAGTCAGACCAACATTGCTACGACCCGTATTCGCACCGACAC | -0.451 ± 0.085 | 2.49 ± 0.05
ACATTTGTTGATACAACCATAAAATGATAATTACACCCATAAATTGATAATTATCAACAAACGCCCGGTCGCGGTACTCTGATCATAGTCAGACCAACATTGCTACGACCCGTATTCGCACCGACAC | -0.287 ± 0.0067 | 2.66 ± 0.038
ACATTTGTTGATACAACCATAAAATGATAATTACACCCATAAATTGATAATTATCAACAACATAAATTGATATTGCCTCTGATCATAGTCAGACCAACATTGCTACGACCCGTATTCGCACCGACAC | -0.911 ± 0.21 | 1.36 ± 0.2
ACATTTGTTGATACAACCATAAAATGATAATTACACCCATAAATTGATAATTATCAACACCCATAAATTGATATTGCCTCTGATCATAGTCAGACCAACATTGCTACGACCCGTATTCGCACCGACA | -0.35 ± 0.052 | 0.619 ± 0.036
ACATTTGTTGATACAACCATAAAATGATAATTACACCCATAAATTGATAATTATCAACCCCATAAATTGATATTGCCTCTGATCATAGTCAGACCAACATTGCTACGACCCGTATTCGCACCGACAC | -0.731 ± 0.18 | 1.26 ± 0.17
ACATTTGTTGATACAACCATAAAATGATAATTACACCCATAAATTGATAATTATCACAAAACGCCCGGTCGCGGTAAGAGGATCATAGTCAGACCAACATTGCTACGACCCGTATTCGCACCGACAC | -0.437 ± 0.16 | 2.81 ± 0.094
ACATTTGTTGATACAACCATAAAATGATAATTACACCCATAAATTGATAATTATCACAAAACTAAATTGATATTGCCTCTGATCATAGTCAGACCAACATTGCTACGACCCGTATTCGCACCGACAC | -0.531 ± 0.15 | 2.45 ± 0.22
ACATTTGTTGATACAACCATAAAATGATAATTACACCCATAAATTGATAATTATCACAAACATAAATTGATATTGCCTCTGATCATAGTCAGACCAACATTGCTACGACCCGTATTCGCACCGACAC | -0.114 ± 0.033 | 0.898 ± 0.13
ACATTTGTTGATACAACCATAAAATGATAATTACACCCATAAATTGATAATTATCACACAAATAAATTGATATTGCCTCTGATCATAGTCAGACCAACATTGCTACGACCCGTATTCGCACCGACAC | -1.11 ± 0.18 | 2.06 ± 0.028
ACATTTGTTGATACAACCATAAAATGATAATTACACCCATAAATTGATAATTATCACACAACGAAATTGATATTGCCTCTGATCATAGTCAGACCAACATTGCTACGACCCGTATTCGCACCGACAC | -0.936 ± 0.18 | 2.18 ± 0.14
ACATTTGTTGATACAACCATAAAATGATAATTACACCCATAAATTGATAATTATCACACAACGCCCGGTCGCGGTAAGAGGATCATAGTCAGACCAACATTGCTACGACCCGTATTCGCACCGACAC | -0.696 ± 0.091 | 2.32 ± 0.24
ACATTTGTTGATACAACCATAAAATGATAATTACACCCATAAATTGATAATTATCACACCACGCAATTGATATTGCCTCTGATCATAGTCAGACCAACATTGCTACGACCCGTATTCGCACCGACAC | -0.677 ± 0.11 | 2.1 ± 0.088
